Laboratory results from US8114638B2, “Arabinitol dehydrogenase from Neurospora crassa” (The Board of Trustees of the University of Illinois, priority 2007, dated 2012).

Tested on: OC[C@H](O)C(O)[C@@H](O)CO
Assay: purified protein, by the assay type
Settings: other: with indicated substrate, 25° C., 50 mM Tris pH 8.0, saturated NAD+ (2 mM)
Description: Initial rates were determined using a Varian Cary 100 Bio UV-visible spectrophotometer (Varian) at 25° C. in 50 mM Tris (pH 8.0). […] The kinetic data were analyzed with a modified version of Cleland's program (Cleland, W. W. (1979) Statistical analysis of enzyme kinetic data, Methods Enzymol 63, 103-138.).
Kinetics. The data were used to calculate the kinetic constants for various substrates by fitting the Michaelis-Menten equation using Origin 5.0. […] The data represent averages of assays performed in duplicate or triplicate on two separate occasions.

Q: With N. crassa LAD (Neurospora crassa OR74A) as the substance, how does the Km read?
A: 18 ± 2 mM

Q: And the kcat?
A: 20.2 ± 0.5 s⁻¹

Q: And the kcat/Km?
A: 1120 M⁻¹ s⁻¹
